{"source": "paper PMC4184467", "origin": "cited, not measured here", "tested_on": "Lys64", "settings": "wild-type enzyme, zinc-bound", "data": [{"substance": "Carbonic anhydrase III (CA III) (Homo sapiens)", "values": [{"measurement": "pKa", "value": 9.0}]}]}
